In article PMC6719084 (2019):

What was measured:
Test in all cases: FP
MCL-1ΔNΔC = molecular target: T1, MCL-1ΔNΔC
T1 chain: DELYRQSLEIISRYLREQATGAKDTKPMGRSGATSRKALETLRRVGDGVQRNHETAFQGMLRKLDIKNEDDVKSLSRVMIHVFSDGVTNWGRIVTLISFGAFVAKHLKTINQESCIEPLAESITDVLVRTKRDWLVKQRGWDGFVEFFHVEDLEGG

BCL-XLΔC = molecular target: BCL-XLΔC
BCL-WΔC = molecular target: T2, BCL-WΔC
T2 chain: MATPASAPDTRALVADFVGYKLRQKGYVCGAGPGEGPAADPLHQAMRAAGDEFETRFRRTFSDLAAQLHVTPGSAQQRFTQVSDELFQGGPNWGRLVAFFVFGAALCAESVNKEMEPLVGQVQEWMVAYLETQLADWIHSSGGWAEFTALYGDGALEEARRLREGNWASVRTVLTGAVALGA

BCL-2ΔC = molecular target: BCL-2ΔC

B1: FITC-BIM_(A,cath,K)PA2 (BIMA, valine-citrulline cathepsin-cleavable linker, five lysines, DSPE-PEG(2000) lipid tail) (peptide)
chain: IWIAQELRRIGDEFNAYYARRVXKKKKK
modifications: fluorescein isothiocyanate (FITC) on the N-terminus; citrulline after the linker's valine (written X in the letters); DSPE-PEG(2000)-succinyl lipid tail on the side chain of the C-terminal lysine
Kd (MCL-1ΔNΔC): 453 nM | Kd (BCL-XLΔC): 165 nM | Kd (BCL-WΔC): 247 nM | Kd (BCL-2ΔC): 187 nM
